Article PMC2173521

Experiments:
[1] = molecular target: N-1 peptide (derived from HRA of the SV5 F protein) (SV5 (W3A strain))
[2] = molecular target: N-1 peptide (derived from HRA of the SV5 F protein) (SV5 (W3A strain)); assay: AUC

| Substance | IC50 inhibition of cell–cell fusion by SV5 F (T7 luciferase reporter gene assay) [1] [nM] | Mobs/Mcalc (mol wt found over that calculated for one N-1/C-1 heterodimer) [2] |
| --- | --- | --- |
| C-1 peptide (derived from HRB of the SV5 F protein), wild type | 38 |  |
| C-1 peptide I449A | 115 | 2.8 |
| C-1 peptide I449F | 151 | 2.9 |
| C-1 peptide I449G | 271 | 2.9 |
| C-1 peptide I449L | 54 | 2.8 |
| C-1 peptide I449V | 58 | 3 |
| C-1 peptide I449W | 146 |  |
| C-1 peptide L447A | 92 | 2.8 |
| C-1 peptide L447F | 100 | 2.9 |
| C-1 peptide L447G | 150 | 2.7 |
| C-1 peptide L447I | 50 | 2.8 |
| C-1 peptide L447V | 83 | 2.8 |
| C-1 peptide L447W | 106 | 3.1 |
